In patent US20100041032A1 one finds luciferase activity, FAST transcription factor dependent (n2)7-luciferase reporter assay in F9 Cripto-/- cells, fold increase compared with control data, which are given here for 1 substance.

In this assay the target is Nodal, endogenous in mouse F9 Cripto-/- cells (mouse) (UniProt P43021). The assay is described as follows: cell-based or functional assay.
Chain of UniProt P43021 (P43021 245-354 limits assumed): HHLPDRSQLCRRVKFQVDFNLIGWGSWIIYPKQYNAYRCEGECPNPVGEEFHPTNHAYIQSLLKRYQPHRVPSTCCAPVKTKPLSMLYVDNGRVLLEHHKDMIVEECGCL

“human Cripto-1 (protein encoded by TDGF1) (from UniProt P13385 31-150)” returned a luciferase activity, FAST transcription factor dependent (n2)7-luciferase reporter assay in F9 Cripto-/- cells, fold increase compared with control of 4 to 6 fold.
